Target: T1, Hsp16.3 (16 kDa alpha-crystallin like heat-shock protein of Mycobacterium tuberculosis), recombinant, 6 X His … (Mycobacterium tuberculosis)
T1 construct: also called M. tuberculosis Acr (Hsp16.3) protein
Test: reverse phage ELISA on coated Hsp16.3, anti-M13-HRP, A405

B1: phage clone displaying peptide sequence Seq ID 21 (Tyr-Pro-His-His-Phe-Lys-His-Arg-His-Ile-Pro-Ile), from the Ph.D.-12 library on bacteriophage M13 (peptide)
peptide: YPHHFKHRHIPI
notes: Tested as whole phage in the reverse phage ELISA; not shown: fused to an M13 coat protein (spacer Gly-Gly-Gly-Ser is named)
  fold binding over BSA background: ~3 fold
